Test [1] relates to diffuse large B-cell lymphoma cells. The test is described as follows: Analysis of probe specificity: probe-coupled magnetic bead capture from mixed cells, flow cytometry. Format: cell-based. The following applies: positive cells (diffuse large B-cell lymphoma cells) mixed with negative cells (HELA cells) 1:10; proportion of positive cells among captured cells by flow cytometry. The protocol:
The diagnostic specificity of the small molecular probe was detected using flow cytometry and the specific steps were as follows: • 1) Preparation of gradient concentration of cell samples: positive cells (diffuse large B-cell lymphoma cells) were mixed with negative cells (HELA cells) at a ratio of 1:10 and repeatedly pipetted to mix well; • 2) Probe-bead coupling: the reaction was performed in PBS buffer, with a bead-coupling concentration of 1 mg/mL, and 1 mg of beads corresponded to 10 μg of the BtaE3 probe, with gentle shaking for 1 h at room temperature. This was followed by washing five times with PBS buffer containing 0.01% BSA, standing for 30 s each time, and finally resuspending in PBS buffer at a concentration of 15 mg/mL; • 3) Positive cell enrichment: cells were thoroughly mixed with the magnetic bead suspension, with shaking by hand for 30 min at 4° C. in an ice box, followed by washing three times with PBS (containing 0.1% BSA and 2 mM EDTA) buffer and resuspending in PBS; • 4) Specificity analysis: The captured cells were separated using a magnetic field, and the protein expression profile was quantified by flow cytometry to calculate the proportion of positive cells.
In general terms: In flow cytometry, cells or beads pass a laser one at a time.

A further test deals with CD138 (UniProt P18827 23-251). The test is described as follows: SPR imaging (SPRi); probe spotted on bare gold chip, CD138 flowed at 50-800 nM.
CD138, sequence (P18827 23-251): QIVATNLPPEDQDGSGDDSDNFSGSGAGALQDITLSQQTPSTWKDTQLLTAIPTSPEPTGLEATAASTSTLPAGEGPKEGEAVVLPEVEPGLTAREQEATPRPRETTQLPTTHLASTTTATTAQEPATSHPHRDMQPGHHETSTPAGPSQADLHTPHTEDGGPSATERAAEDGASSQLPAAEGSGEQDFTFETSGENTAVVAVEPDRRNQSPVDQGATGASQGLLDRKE

Where a SMILES comes first, the peptide text is derived from it.

Consider `CC[C@H](C)[C@H](N)C(=O)N[C@@H](CS)C(=O)N[C@@H](Cc1c[nH]c2ccccc12)C(=O)NCC(=O)N[C@@H](CCCNC(=N)N)C(=O)N[C@@H](CCCNC(=N)N)C(=O)N[C@@H](CCCNC(=N)N)C(=O)NCC(=O)NCC(=O)N[C@@H](Cc1ccccc1)C(=O)O` [BtaE3, Ile-Cys-Trp-Gly-Arg3-Gly2-Phe] (H-ICWGRRRGGF-OH; N-terminus and C-terminus assumed), for which the specificity for detection in test [1] is recorded as greater than 90%.

B1: BtaE1 (peptide)
peptide: ICWRRRGGGF
notes: Designed synthetic polypeptide probe; spotted on a bare gold SPRi chip; also called Ile-Cys-Trp-Arg3Gly3-Phe
For B1, the Kd in the test with CD138 was 0.702 nM.

B2: Bta893 (peptide)
peptide: HCWRGF
notes: Synthetic polypeptide probe from the Mix-Split library; spotted on a bare gold SPRi chip; also called His-Cys-Trp-Arg-Gly-Phe
In the test with CD138, B2 gave a dissociation constant (Kd) of 1.29 nM.

B3: BtaE3 (peptide)
peptide: ICWGRRRGGF
notes: Designed synthetic polypeptide probe; spotted on a bare gold SPRi chip; also called Ile-Cys-Trp-Gly-Arg3-Gly2-Phe
Molecule B3 gave a Kd in the test with CD138 of 0.121 nM.

B4: Bta3097 (peptide)
peptide: GCYRRF
notes: Synthetic polypeptide probe from the Mix-Split library; spotted on a bare gold SPRi chip; also called Gly-Cys-Tyr-Arg-Arg-Phe
In the case of B4, the Kd in the test with CD138 is 5.26 nM.

B5: BtaPL3 (peptide)
peptide: ICWRRRRRRRRRF
notes: Designed synthetic polypeptide probe; spotted on a bare gold SPRi chip; also called Ile-Cys-Trp-Arg9-Phe
For B5, the affinity with CD138, expressed as Kd, was 6.56 nM.

B6: BtaPL4 (peptide)
peptide: ICWRRRRRRRRRRRF
notes: Designed synthetic polypeptide probe; spotted on a bare gold SPRi chip; also called Ile-Cys-Trp-Arg11-Phe
As to B6, the affinity in the test with CD138, expressed as Kd, was 9.21 nM.

B7: BtaE2 (peptide)
peptide: ICWGGRRRGGGF
notes: Designed synthetic polypeptide probe; spotted on a bare gold SPRi chip; also called Ile-Cys-Trp-Gly2Arg3Gly3-Phe
As for B7, in the test with CD138, the affinity, expressed as Kd, was 0.309 nM.

B8: BtaP3 (peptide)
peptide: ICWRRGI
notes: Designed synthetic polypeptide probe; spotted on a bare gold SPRi chip; also called Ile-Cys-Trp-Arg-Arg-Gly-Ile
The molecule B8 yielded a Kd with CD138 of 0.977 nM.

B9: BtaPL5 (peptide)
peptide: ICWRRRRRRRRRRRRRF
notes: Designed synthetic polypeptide probe; spotted on a bare gold SPRi chip; also called Ile-Cys-Trp-Arg13-Phe
The molecule B9 registered a Kd with CD138 of 85.7 nM.

B10: BtaPL1 (peptide)
peptide: ICWRRRRRF
notes: Designed synthetic polypeptide probe; spotted on a bare gold SPRi chip; also called Ile-Cys-Trp-Arg5-Phe
On to B10, for which the affinity with CD138, expressed as Kd, was 0.856 nM.

B11: Bta1335 (peptide)
peptide: CCHRGF
notes: Synthetic polypeptide probe from the Mix-Split library; spotted on a bare gold SPRi chip; also called Cys-Cys-His-Arg-Gly-Phe
Consider B11, for which binding in the test with CD138 was characterised by a dissociation constant (Kd) of 2.57 nM.

B12: BtaPL2 (peptide)
peptide: ICWRRRRRRRF
notes: Designed synthetic polypeptide probe; spotted on a bare gold SPRi chip; also called Ile-Cys-Trp-Arg7-Phe
B12 yielded a Kd in the test with CD138 of 0.731 nM.

B13: BtaP1 (peptide)
peptide: HCWRRF
notes: Designed synthetic polypeptide probe; spotted on a bare gold SPRi chip; also called His-Cys-Trp-Arg-Arg-Phe
Molecule B13 had a Kd in the test with CD138 of 1.15 nM.

B14: BtaP2 (peptide)
peptide: ICWRRF
notes: Designed synthetic polypeptide probe; spotted on a bare gold SPRi chip; also called Ile-Cys-Trp-Arg-Arg-Phe
Molecule B14 showed a Kd with CD138 of 1.02 nM.

By Kd is commonly meant the free concentration of one partner at which half of the binding sites on the other are occupied at equilibrium, for simple one-to-one binding. A low value points to tighter binding.
